Measured values: patent EP4269437A1 (Zhejiang Nanomab Technology Center Co. Ltd., dated 2023)
Like-named read-outs stand apart in the source and are kept apart here.

T1: murine PD-1 protein (murine, UniProt Q02242 25-167, limits assumed)
T1 construct: bought
T1 sequence (looked up): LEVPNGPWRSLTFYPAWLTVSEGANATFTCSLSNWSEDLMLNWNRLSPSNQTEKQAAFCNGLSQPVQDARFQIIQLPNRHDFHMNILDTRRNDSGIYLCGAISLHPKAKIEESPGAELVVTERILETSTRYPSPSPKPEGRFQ

T2: ICOS (UniProt Q9Y6W8 21-140, limits assumed)
T2 construct: bought
T2 sequence (looked up): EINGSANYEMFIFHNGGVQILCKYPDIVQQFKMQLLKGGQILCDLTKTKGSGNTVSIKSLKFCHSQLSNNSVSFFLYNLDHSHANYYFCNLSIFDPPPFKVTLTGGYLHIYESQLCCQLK


Experiments:
[1] = biological target: T3, PD-1 (UniProt Q15116 25-170, limits assumed); assay: SPR; set-up and antigen form not restated
T3 construct: also called PD-1 protein

[2] = biological target: T3, PD-1; assay: SPR; set-up and antigen form not restated; remark: listed apart in the source
[3] = biological target: T3, PD-1; assay: SPR; set-up and antigen form not restated; remark: listed apart in the source
[4] = biological target: PD-1 on GS-J2/PD1 effector cells (UniProt Q15116 25-288, limits assumed); assay: cell-based or functional assay
[5] = biological target: T1, murine PD-1 protein; assay: ELISA on coated protein, anti-human Fc HRP
[6] = biological target: T4, CTLA-4 (UniProt P16410 36-161, limits assumed); assay: ELISA on coated protein, anti-human Fc HRP
T4 construct: bought

[7] = biological target: T2, ICOS; assay: ELISA on coated protein, anti-human Fc HRP
[8] = biological target: T5, CD28 (UniProt P10747 19-152); assay: ELISA on coated protein, anti-human Fc HRP
T5 construct: bought

[9] = biological target: T6, PD-1.His (UniProt Q15116 25-170, limits assumed); assay: SPR, antibody captured on protein A, PD-1.His in flow
T6 construct: not shown: His tag
T6 sequence (Q15116 25-170 limits assumed): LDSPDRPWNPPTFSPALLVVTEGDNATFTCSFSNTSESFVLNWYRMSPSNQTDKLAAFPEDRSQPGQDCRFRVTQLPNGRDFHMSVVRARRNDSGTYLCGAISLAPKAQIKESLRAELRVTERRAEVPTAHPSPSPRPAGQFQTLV

T3 sequence (Q15116 25-170 limits assumed): as above
T4 sequence (P16410 36-161 limits assumed): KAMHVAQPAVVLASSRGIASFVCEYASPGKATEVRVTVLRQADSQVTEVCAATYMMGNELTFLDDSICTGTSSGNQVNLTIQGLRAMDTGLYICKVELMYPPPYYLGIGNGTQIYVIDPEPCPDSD
PD-1 on GS-J2/PD1 effector cells, sequence (Q15116 25-288 limits assumed): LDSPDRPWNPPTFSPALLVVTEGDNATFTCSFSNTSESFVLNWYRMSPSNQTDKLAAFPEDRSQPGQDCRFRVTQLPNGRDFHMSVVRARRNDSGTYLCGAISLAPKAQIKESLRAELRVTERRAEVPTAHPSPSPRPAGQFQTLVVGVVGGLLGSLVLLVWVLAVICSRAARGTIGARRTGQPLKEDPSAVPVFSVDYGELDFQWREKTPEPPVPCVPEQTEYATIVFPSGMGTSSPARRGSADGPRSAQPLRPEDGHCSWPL

| fold increase in affinity compared to NB194 [1] | Kd [2] | koff [2] | kon [2] | Kd [3] | koff [3] | kon [3] | Reporter Gene Assay EC50 (luciferase) [4] | binding result [5] | binding result [6] | binding result [7] | binding result [8] | Kd [9] | koff [9] | kon [9] | Binder |
| --- | --- | --- | --- | --- | --- | --- | --- | --- | --- | --- | --- | --- | --- | --- | --- |
| 5 fold | 0.118 nM | 2.86e-05 s⁻¹ | 243000 M⁻¹ s⁻¹ | 0.151 nM | 4.37e-05 s⁻¹ | 290000 M⁻¹ s⁻¹ | – | – | – | – | – | – | – | – | NB194-P29 (Fc fusion, not shown: IgG4 constant region of vector pCDNA3.4-IgG4) heavy: QLQLVESGGGSAQAGGSLTLSCTASGHSFSIYDMGWFRQAADKERESVAVINFGRGTTYYAESVKGRFTISLDSAKNTVYLQMNTLKPEDTAVYSCGIDRRQYGLGIPPLADHWGQGSQVTVSS |
| – | 0.531 nM | 7.36e-05 s⁻¹ | 139000 M⁻¹ s⁻¹ | – | – | – | 7 nM | no binding (tested: 0.1µg) | no binding | no binding | no binding | 0.494 nM | 0.000105 s⁻¹ | 212000 M⁻¹ s⁻¹ | NB194 (Fc fusion, not shown: IgG4 constant region of vector pCDNA3.4-IgG4) heavy: QVQLVETGGGLVRAGGSLRLSCTASGRPFSIYDMGWFRQAPDKERESVAVINLSRGDTYYADSVKGRFTISLDSAKNTVYLQMNSLKPEDTAVYSCGVDRRQYGLGIPPLADHWGQGTQVTVSS |
